Data taken from the DeepSol protein solubility set.

assay: soluble on expression in E. coli; label from the status in PepcDB or PDB records

| Sequence | soluble on expression in E. coli |
| --- | --- |
| GPGSMEYVGALYKDYGELLSTAQNSFLNVQSDVEGVEDVKNICARLHISIHRWEHSEELYAVRNQLHLQTQVLKAHSDHSSRVLQECVQRDELIKMHTEKSALLATKLRKQSSEVDKLQKECDKLDRKIAKRSEVAQKDLDAMAVKSTATVLSLTSQFFKVMHKNGAFIADRFSPDRAGVGAHDFDTASDDAVTGTLRRLHSVRSEMSSVAPSAVYGQNYNTFHPSEADTRVSDGARNSGIPLRYETSVPPAMSA | not soluble |
| MATANEHLVAWLRDAHAMEEQAITMLTSQSSRLENYPELKTRIDRHLQETKDQAAMLERCLERLDGGTSSIKDISGKIVAFGQGLSGLFVSDEVVKGTLASYTFEHMEIASYRILIAAAEQAGDQETKRVCESILQQEIAMAEWLAQNAGEITRKFLERDQRDVTAKH | not soluble |
| MGSDKIHHHHHHMHIAIASGKGGTGKTTLAVNLAVHAARSGHPTVLADCDVEEPNAHLFMPGEPVMTLTHSLPVPAVDKAKCLGDSCRKCVEECRFKALTWMKGVMAFSELCHGCGLCMMICPSGAITETTRPVGTVEIRTPQLPVPAGASAGAAALTLVSGRMRISEAMAPPLIREVKQQAHAVSAGTPNGLTFWDSPPGTSCPMISTVENADYSVLVTEPTPFGLHDLRLAVETLHTLGRPFGVVINRDGMGDGRVREYLDRHRIPLLGTVPHSPQAAQAVSSGRLLIDAVDGMTGCFDRLLHTVLRHAHNAAQHGQEKTA | not soluble |
| MSLSKFTEMMKNRRSIYALGENLPISKEEVTALVKEVVRESPTAFNSQTQRVVFLFGDAHKKLWAMTEDALKPLTPAEAFPNTQAKLQGFAAGAGTILFFEDTDIVKNLQDSFPLYADNFPVWSEQATGLTQANVWTALAQENIGANLQHYNPVIDEAVAAEWSIPANWNLRAQMVIGSIEAPAGEKEYMEDSARFKEFNEGGSHHHHHH | soluble |
| MGSDKIHHHHHHMETLQLRDISETALLPLWARAMETLRPDAIIHDDKALEMYQRLNYDFKRFSNAWLSQLAIAIRTDLIDKLVMDFINAHPQAVIINLGAGFDSRYLRVDNGQIHWFDLDLPNVIAARRLFFSDSDRYRMLEQSLFDVSWLEHAAGESDNCLILAEGVLMYFTEQRIKQFFNDLAERIPHARMLLEMLPHGALGQAHLHEAIGWMNAAFQWTLHNIRRLESWNSHIKVRQEWCILDYHWERWGALSLLAWSPWHRYLFGEKLALLEFD | not soluble |
| MSKRLYQQIETLWDYLQLHQQPNVADLILVLGSNDVRVAEHAAKLYHQGLAPYVLFSGGFGRFTQGVFNHNEAETFAAIAKDAGVPEHAILLETQSTNSGENLHFSHQLLVQQARPAKRILLVQKPYMERRAYATFMQQWPESVESVQVTSPAGSFFDYLTSELTSDFVLNAMLGDFERIRDYPALGFQITQPIPEPVMQAYQALLPLKVNLEMSLEHHHHHH | not soluble |
| MYDYGTFAFASKADVLDQAKAFWNPDKTQFWTDSGVDLVIDRREGYFLWDMSGRRLIDLHLNGGTYNIGHRNPEVMQAISEGMAHFDVGNHHFPSVARTALAKRLVETAPASIKKVAFGSGGGEAIDIALKSARHGTQRRKIVSVIKAYHGHTGLAVATGDDRFAKLFLADRPDEFIQVPFGDIGAMEAALAGGDVAAVIMETIPATYGFPLPPPGYLEAVKALTERHGTLYIADEVQTGLMRTGELWGITKHGIDPDIIVTGKGLSGGMYPISAVLLGERAARWLDQDGFGHISTFGGAELGCVAAIKTLEICTRPEVRSMVHYIADIFDTGLRRIQADYPDWFVGIRQNGVVIGLEFDHPEGAKFVMRELYENGVWAIFSTLDPRVLQFKPGLLLSRELCEDVLDRLEVAVGRARATVTGRRNG | not soluble |
| MHIDNEDALFDWLSDELSPITDADPNALAKYVLALVKKPDKGHDELKAFTNEQLNVFLTDHTAPFVDKVFEALTSKSYMPASTAPTSASATAPDLKKEKAPAEKPSKPTAPPGVQKSSSSPSASKAESRPLRKRISPPPSENREKEKQSRDKERRRSRSPRDRRGRATTSRSGRTSSSDRDRHSKRRSRSRSRSSSGSRTPPYKSRSSRRRCKDFEERGYCIRGDQCPYYHGRDPVVVDENALGSMVPLPATAPNFSLPPPGYNPLNPPPPGVVVAAGEYNPEAPALNNYSIPPPPIPGQWQQPHVAAQYVPQSVSSYSQPPPAAAQGVVTQPGSFRGAPRGRGNIRGRGGFARGGFTGAINRDNCTLQVAKIPPEMNTIAKLNEHFATFGTVDNIQVRYNGEIDSALVTYASKFDAGKAYKSPTPVLNNRFIKVFWHNPGGEGSENATGKPSSPTSPPKPVEKPKIATVQESKFVSVAAQNYRKQIQDAKERLTKEKSILSTLVQAQNQHNIILDKWMVKQKELLIKARTSTDETDKKNATKLVKHLHKKIKACKEEVDGILLKISEKSMVVDEIAAQIEELKNPQKSDDSTRKRKAGSDGDEPQSKMSSVVIVRGVTDELVTDLMAHMEKFGEVFDHSVKADDDGLITAVFPFRKTGDALKAMADGKVLNGVDLEMELKTERIEEIPSTDTNMSADQLLAAIPSNLESDEEDDLLND | not soluble |
| MGSSHHHHHHSSGLVPRGSAVPLCKQALEDLEKTSGHDHPDVATMLNILALVYRDQNKYKEAAHLLNDALAIREKTLGKDHPAVAATLNNLAVLYGKRGKYKEAEPLCKRALEIREKVLGKFHPDVAKQLSNLALLCQNQGKAEEVEYYYRRALEIYATRLGPDDPNVAKTKNNLASCYLKQGKYQDAETLYKEILTRAHEKEFGSVNGDNKPIWMHAEEREESKDKRRDSAPYGEYGSWYKACKVDSPTVNTTLRSLGALYRRQGKLEAAHTLEDCASRNRK | soluble |
| MGHHHHHHSHMHDSANCELPLLTPCSKAVMSQALKATFSGFKKEQRRLGIPKNPWLWSEQQVCQWLLWATNEFSLVNVNLQRFGMNGQMLCNLGKERFLELAPDFVGDILWEHLEQMIKENQEKTE | not soluble |
| MGSDKIHHHHHHMKIAHVAPLYESVPPRLYGGTERIISYLTEALVDLGHDVTLFASGDTKTSAKLVPCRERALRLDPRPLKSEIAAHLSMLDEVRKRADDFDVIHFHLSHFLHFPFFRDMPQRTVTTPHGRLDYADLAQAYDRFPRFPMVSISRSQRARFASANWLATIHHGLPVDLYEPDFEAGSDGGYLAFLGRMSRDKRPDRAIEIARRTGLKLKLAAKIGDGDRAYFEEVVQPMIDGDRVEYVGEIGEDQKSRFLGNAAALLFPIDWPEPFGLAVIEAMACGTPVMAWSCGAMPEIVDYGVTGFVVETIEDAVATMPALLQLDRRRIRAVFERRFSADRMARDYVEAYSRLRNGHEQSRAS | not soluble |
| MARDALTDALTVGELRRRVHALVLGKRQRVYSGAMFLVEVVHHPELSAMLGLEDNKLLLAMIAQRLQMQSDYFQVARHSSDSFMVWAPDLDPRSARDVAPEVLDALSQPYELRGQPLIVGFRLSGALYAQHGACFDELERSLHIAMLHLDESAGAAWNMFEPSMLEHQRHYQGLEHHHHHH | not soluble |
| MSLKKTTWFAGRFPGYVSPLSSVALSVLAALCPLTSRGESYFNPAFLSADTASVADLSRFEKGNHQPPGIYRVDIWRNDEFVATQDIRFEAGAVGTGDKSGGLMPCFTPEWIKRLGVNTAAFPVSDKGVDTTCIHLPEKIPGAEVAFDFASMRLNISLPQASLLNSARGYIPPEEWDEGIPAALINYSFTGSRGTDSDSYFLSLLSGLNYGPWRLRNNGAWNYSKGDGYHSQRWNNIGTWVQRAIIPLKSELVMGDSNTGNDVFDSFGFRGARLYSSDNMYPDSLQGYAPTVRGIARTAAKLTIRQNGYVIYQSYVSPGAFAITDLNPTSSSGDLEVTVDEKDGSQQRYTVPYSTVPLLQREARVKYDLVAGDFRSGNSQQSSPFFFQGTVIAGLPAGLTAYGGTQLADRYRAVVVGAGRNLGDWGAVSVDVTHARSQLADDSTHQGQSLRFLYAKSLNNYGTNFQLLGYRYSTRGFYTLDDVAYRSMEGYDYEYDSDGRRHKVPVAQSYHNLRYSKKGRFQVNISQNLGDYGSLYLSGSQQNYWNTADTNTWYQLGYASGWQGISYSLSWSWSESVGSSGADRILAFNMSVPFSVLTGRRYARDTILDRTYATFNANRNRDGDNSWQTGVGGTLLEGRNLSYSVTQGRSSSNGYSGSASASWQATYGTLGVGYNYDRDQHDYNWQLSGGVVGHADGITFSQPLGDTNVLIKAPGAKGVRIENQTGVKTDWRGYAVMPYATVYRYNRVALDTNTMDNHTDVENNVSSVVPTEGALVRAAFDTRIGVRAIITARLGGRPLPFGAIVRETASGITSMVGDDGQIYLSGLPLKGELFIQWGEGKNARCIAPYALAEDSLKQAITIASATCIRPASEGGSHHHHHH | soluble |
| MAKKKKKKSFNTTRPTDPPVYPVTVPFLGHIVQFGKNPLEFMQRCKRDLKSGVFTISIGGQRVTIVGDPHEHSRFFSPRNEILSPREVYTIMTPVFGEGVAYAAPYPRMREQLNFLAEELTIAKFQNFVPAIQHEVRKFMAENWKEDEGVINLLEDCGAMIINTACQCLFGEDLRKRLNARHFAQLLSKMESSLIPAAVFMPWLLRLPLPQSARCREARAELQKILGEIIVAREKEEASKDNNTSDLLGGLLKAVYRDGTRMSLHEVCGMIVAAMFAGQHTSTITTSWSMLHLMHPKNKKWLDKLHKEIDEFPAQLNYDNVMDEMPFAERCVRESIRRDPPLLMVMRMVKAEVKVGSYVVPKGDIIACSPLLSHHDEEAFPNPRLWDPERDEKVDGAFIGFGAGVHKCIGQKFALLQVKTILATAFREYDFQLLRDEVPDPDYHTMVVGPTLNQCLVKYTRKKKLPSHHHHHH | soluble |
| MKGKKVLITSGGCLEKWDQVRGHTNMAKGTIGRIIAEELLAKGAHVIYLHGYFAEKPSDVHRGLELHPFEGIVDLQDKMKSIISHEKVDAVIMAAAGSDWIVEKICDQDGNVLNMNGKISSDIAPIIHFQKAPKVLKQIKEWDPETVLVGFKLESDLNEEELFERAKNRMKEARANVMIANSPHSLYSRGAVHYVIGQDGKGKLCNGKDETAKEIVKSLEVLCNRVTAF | not soluble |
| MKIIDCRNMACPAPVVTTKRALEEAGGETVQVLVDPGAPRENVIRFAENRGFAVSEVEADNGFALTITSPGSAPVEPVRTVAGKGGKTVMLVASDRLGDGPEELGRLLMKNFIITLLDLAELPDRMLFVNTGVLLTTEGSEVLEALQSLGNRGVEVLSCGVCLDFFHRKEKLVAGSVTNMFTIAESLLGAGSVVRLLEHHHHHH | soluble |
| MAHHHHHHMRNLSDQFPVEDSPMNARRQMANGDDHSQRDSPMNHDVAHTYEGNTLDGHLTKAESASMTKTPTAAANGACANSAPSEYVVAKERLEAARAAHKQRLREIKDDKSLKIKSMPSLEELRDERVRLSEQVLHHKDEQDSLALDIEGLEGAAEVYQLAARVQRLEHFANRAYEYAEETLPRDIERTLEEDRQLSNRELCAYIQELQSKRANTLKKVVASQEGMVKRNLRKGATATTAALGEDADPMEAKAVAHTQENKDECVVLHQKIRRFCAMRTKLQSDILKEKSASKKMEERMCAAIRTAELANARDARMCGELNNRNAAATTNSQLLIDQLNVGHYGLGNAPSTKQLLEDRKAREALLETTETDQQQYGRFVSSGSLGSRQSYANSQSSHQRAIKPPLVASKPTAAQRARDDASRSSREEFAQMLRRNSDGNSYQASRSQSLSKPPLVASKPTASQQSRETALRGEREEVSVSRTVARSNSLFSDVRPPSLAAKSTASQRSRDRQ | not soluble |
| ATGDTAATAAPAKAEKTAGSVLRDAKRVIIVPGYGMALAQAQHQVRQLADKLTANGTEVRYAIHPVAGRMPGHMNVLLCEADVPYDQLFEMDAINGDFAQTDAVVVIGANDVMNPAARNAEGTPIYGMPVLNVDDAPEVIICNFDLKPGYAGVDNPLYTRATGVFLKLGDAKESLAEIMKEMDIA | not soluble |
